Data taken from patent US20220096653A1, “CONJUGATE COMPRISING LIGAND AND CEACAM5 ANTIBODY FAB FRAGMENT” (ASTELLAS PHARMA INC., priority 2019, published 2022).
Where “and” joins values, the source holds several entries; their conditions need not be identical. Equal values may be shown once. One block for each molecule: values may come before it.

Legend:
liver metastasis = details: compared with the normal liver; cited from earlier work
[1] = mouse, in vivo; cited from earlier work
[2] = target: human cancer-specific MUC1 peptide (PTL 1) (human); test: ELISA on immobilised human cancer-specific MUC1 peptide, 4-parameter fit; one of 3 runs (Example 6-2)
[3] = target: human cancer-specific MUC1 peptide (PTL 1) (human); test: ELISA on immobilised human cancer-specific MUC1 peptide, 4-parameter fit; one of 3 runs (Example 6-1)
[4] = target: T1, CEACAM5 (R&D Systems, 4128-CM-050) (human, UniProt P06731 35-685); test: ELISA on immobilised CEACAM5, 4-parameter fit; geometric mean of 9 runs
T1 construct: Immobilised on the ELISA plate; also called human CEACAM5
T1 sequence (looked up): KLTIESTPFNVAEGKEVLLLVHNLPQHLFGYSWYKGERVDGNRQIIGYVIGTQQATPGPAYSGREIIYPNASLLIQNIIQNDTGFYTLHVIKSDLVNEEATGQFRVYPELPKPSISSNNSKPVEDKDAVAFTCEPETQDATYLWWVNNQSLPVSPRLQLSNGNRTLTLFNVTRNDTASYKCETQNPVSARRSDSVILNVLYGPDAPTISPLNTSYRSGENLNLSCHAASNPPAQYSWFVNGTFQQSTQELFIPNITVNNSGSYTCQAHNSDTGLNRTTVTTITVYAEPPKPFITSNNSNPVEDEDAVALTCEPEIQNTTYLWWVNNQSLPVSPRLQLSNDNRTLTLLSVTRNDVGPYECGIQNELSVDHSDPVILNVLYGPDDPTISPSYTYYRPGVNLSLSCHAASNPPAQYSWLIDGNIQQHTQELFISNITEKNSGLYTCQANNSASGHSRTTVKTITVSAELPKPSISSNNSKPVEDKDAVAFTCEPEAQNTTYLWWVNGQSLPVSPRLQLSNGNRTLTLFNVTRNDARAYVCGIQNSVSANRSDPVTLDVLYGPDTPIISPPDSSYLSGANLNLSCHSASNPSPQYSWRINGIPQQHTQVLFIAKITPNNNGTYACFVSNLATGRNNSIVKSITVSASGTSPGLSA
Procedure: (§1) Each anti-human CEACAM5 antibody Fab fragment conjugate prepared in Example 2 was subjected to ELISA to evaluate the binding activity thereof to CEACAM5. In the present test, a phosphate buffer (Nacalai Tesque Inc., 0.1 mol/L-Phosphate Buffer Solution (pH 7.2)) prepared to 10 mM by diluting 10-fold with distilled water was used as a solvent for an antigen immobilization liquid, and 20×PBS/Tween 20 Buffer (Thermo Fisher Scientific Inc., 28352) diluted 20-fold with distilled water was used as a wash liquid. In addition, for bovine serum albumin (BSA) used in the present test, 30% Bovine Serum Albumin solution (Sigma-Aldrich, Inc., A9576-50ML) was added in an appropriate proportion for use. CEACAM5 (R&D Systems, 4128-CM-050) was diluted with a 10 mM phosphate buffer (pH 7.2) to 0.1 μg/mL, and added to a Nunc MaxiSorp White 384 plate (Nunc, 4603272) at 30 μL per well, and the plate was incubated overnight at 4° C. for immobilization. The CEACAM5 immobilization liquid was removed by reverse centrifugation, and then blocking was carried out by adding a PBS/Tween 20 buffer containing 5.0% BSA. […] The substrate was incubated at room temperature for 15 minutes, and then a signal value thereof was measured using an Envision counter (PerkinElmer, Inc.).
The test for each antibody was carried out in duplicate, and an EC₅₀ value was calculated using a 4-parameter logistic curve model.

[5] = target: T1, CEACAM5 (R&D Systems, 4128-CM-050); test: ELISA on immobilised CEACAM5, 4-parameter fit; one of 2 runs (Example 3-2)
Procedure: as §1
(§2) The test for each antibody was carried out in duplicate, and the EC₅₀ value was calculated using a 4-parameter logistic curve model.

[6] = target: T1, CEACAM5 (R&D Systems, 4128-CM-050); test: ELISA on immobilised CEACAM5, 4-parameter fit, duplicate (Example 3-2)
Procedure: as §1, §2

[7] = set-up: species or system mice (BALB/c nu/nu); details: mouse, in vivo
Procedure: (§3) A Gd-labeled conjugate of the conjugate containing a peptide linker produced in one of the above Examples was administered from the tail vein of tumor-bearing mice so that the protein mass was 0.02 mg (100 μL) per animal. As the tumor-bearing mice used in the present Example, mice (BALB/c nu/nu) that were in a tumor-bearing state brought about by transplanting human colorectal cancer cell line LS174T cells (ATCC(registered trademark); CL-188) at 2.0 to 5.0×10^6 cells/mouse subcutaneously on the back before administration of the sample were used. 24 hours after administration of the sample, the mice were sacrificed, the kidneys and the tumor were removed, and the amounts of Gd in the kidneys and in the tumor were measured using ICP-MS. The present test was carried out in 3 cases in each group, and the mean value of the 3 cases was calculated. The amount of Gd contained per kidney after administration was shown as a percentage of the amount of Gd administered (% of dose/tissue), and the amount of Gd contained per g of tumor tissue was shown as a percentage of the total amount of Gd administered (% of dose/g).

[8] = Kidney accumulation evaluation test of Gd-labeled conjugates, normal mice (Example 4-1)
Procedure: A Gd-labeled conjugate of the conjugate containing a peptide linker produced in one of the above Examples was administered from the tail vein of mice (BALB/c or BALB/c nu/nu) so that the protein mass was 0.02 mg (100 μL) per animal. After about 24 hours, the mice were sacrificed and the kidneys were removed, and the amount of Gd in the kidneys was measured using ICP-MS. The present test was carried out in 3 cases in each group, the mean value of the 3 cases was calculated, and the amount of Gd contained per kidney after administration was shown as a percentage (% of dose/tissue) of the total amount of Gd administered.
Based on the percentage of the control conjugate (% of dose/tissue), the proportion of decrease in the amount of Gd contained in the kidneys of each of the conjugates having a peptide linker was determined and shown in Table 28.

[9] = system: human colorectal cancer cell line LS174T cells; test: Amount of tumor accumulation of Gd-labeled conjugates, LS174T tumor-bearing mice (Example 4-4); details: Gd per g of tumor tissue, 24 hours, mean of 3 cases
Procedure: as §3

Molecule: CEA-Scan: mouse monoclonal antibody NP-4 Fab′ labeled with ^99mTc; FDA-approved diagnostic drug for colorectal cancer
uptake into lesion sites (liver metastasis): does not exceed the uptake into the normal liver

Molecule: [^111In]DOTA-Rituxan Fab: conjugate of [^111In]DOTA-Rituxan Fab (NPL 11)
accumulation in the kidneys [1]: highly accumulated in the kidneys

B3: [Gd/DOTA-NH-CH2-(1,4-Ph)-NH-C(═O)-Met-Ile-NH-(CH2)2-(A-4 and/or A-5)]p-Fab^2 (Fab, V domains shown)
VH: EVQLVESGGGLVQPGGSLRLSCAASGFNIRDTYMHWVRQAPGKGLEWVARIDPANGNSRYVPKFQGRFTISADTSRNTAYLQMNSLRAEDTAVYYCAPFGYYVSDYAMAYWGQGTLVTVSS
VL: DIQLTQSPSSLSASVGDRVTITCRAGESVDIFGVGFLHWYQQKPGKAPKLLIYRASNLESGIPSRFSGSGSRTDFTLTISSLQPEDFATYYCQQTNEDPYTFGQGTKVEIKR
modifications: labeling may sit on this chain; sites not stated; labeling portion (MW 1092) on amino groups of the Fab, sites and chain not stated; 1-4 per Fab by MS
notes: also called Ex-No 66; Conjugate No. 66
EC50 [6]: 0.16 nM

B4: [Gd/DOTA-NH-CH2-(1,4-Ph)-NH-C(═O)-Met-Ile-NH-(CH2)2-(A-3)]p-Fab^2 (Fab, V domains shown)
VH: EVQLVESGGGLVQPGGSLRLSCAASGFNIRDTYMHWVRQAPGKGLEWVARIDPANGNSRYVPKFQGRFTISADTSRNTAYLQMNSLRAEDTAVYYCAPFGYYVSDYAMAYWGQGTLVTVSS
VL: DIQLTQSPSSLSASVGDRVTITCRAGESVDIFGVGFLHWYQQKPGKAPKLLIYRASNLESGIPSRFSGSGSRTDFTLTISSLQPEDFATYYCQQTNEDPYTFGQGTKVEIKR
modifications: labeling may sit on this chain; sites not stated; labeling portion (MW 1187) on amino groups of the Fab, sites and chain not stated; 1-3 per Fab by MS
notes: also called Ex-No 68; Conjugate No. 68
EC50 [6]: 0.31 nM

B5: [Gd/DOTA-[2,5-(1,2,3,4-tetrahydroisoquinoline)]-C(═O)-Met-Gly-Lys*-Z2(#N)]p-Fab^2 (conjugate)
heavy: EVQLVESGGGLVQPGGSLRLSCAASGFNIRDTYMHWVRQAPGKGLEWVARIDPANGNSRYVPKFQGRFTISADTSRNTAYLQMNSLRAEDTAVYYCAPFGYYVSDYAMAYWGQGTLVTVSSASTKGPSVFPLAPSSKSTSGGTAALGCLVKDYFPEPVTVSWNSGALTSGVHTFPAVLQSSGLYSLSSVVTVPSSSLGTQTYICNVNHKPSNTKVDKKVEPKSCD
light: DIQLTQSPSSLSASVGDRVTITCRAGESVDIFGVGFLHWYQQKPGKAPKLLIYRASNLESGIPSRFSGSGSRTDFTLTISSLQPEDFATYYCQQTNEDPYTFGQGTKVEIKRTVAAPSVFIFPPSDEQLKSGTASVVCLLNNFYPREAKVQWKVDNALQSGNSQESVTEQDSKDSTYSLSSTLTLSKADYEKHKVYACEVTHQGLSSPVTKSFNRGEC
Renal residual amount (tumor-bearing mice) % of dose/tissue [7]: 7.30 % of dose/tissue | Renal residual amount (tumor-bearing mice) Proportion of decrease [7]: 71.74% | Proportion of decrease (amount of Gd contained in the kidneys) ([8]; based on control conjugate Ex-No. 47, about 24 hours): 82.9% | % of dose/tissue (amount of Gd contained per kidney) ([8]; tail vein, 0.02 mg protein per animal, about 24 hours, ICP-MS, mean of 3 cases): 5.3 % of dose/tissue | Amount of tumor accumulation (tumor-bearing mice) [9]: 4.53 % dose/g

Further lines, results first:

EC50 [2]: 0.06 nM and 0.14 nM | EC50 [3]: 0.06 nM and 0.14 nM
B1: anti-human MUC1 antibody Fab fragment P10-2 (Fab, V domains shown)
VH: QVQLVQSGAEVKKPGASVKVSCKASGYTFTNYGLSWVRQAPGQGLEWMGENHPGSGIIYHNEKFRGRVTLTADRSTSTAYMELSSLRSEDTAVYYCARSSGTRGFDYWGQGTLVTVSS
VL: DVVMTQTPLSLSVTPGQPASISCRSSQSIVHSNGNTYLEWYLQKPGQSPQLLIYRVSNRFSGVPDRFSGSGSGTDFTLKISRVEAEDVGVYYCFQGSHGPWTFGQGTKLEIKR
modifications: glutamine of amino acid 1 modified to pyroglutamic acid (as Fab^5 is defined in paragraph 370)

EC50 [4]: 0.2 nM | EC50 [5]: 0.14 nM and 0.21 nM
B2: anti-human CEACAM5 antibody Fab fragment PB009-01 (Fab, V domains shown)
VH: EVQLVESGGGLVQPGGSLRLSCAASGFNIRDTYMHWVRQAPGKGLEWVARIDPANGNSRYVPKFQGRFTISADTSRNTAYLQMNSLRAEDTAVYYCAPFGYYVSDYAMAYWGQGTLVTVSS
VL: DIQLTQSPSSLSASVGDRVTITCRAGESVDIFGVGFLHWYQQKPGKAPKLLIYRASNLESGIPSRFSGSGSRTDFTLTISSLQPEDFATYYCQQTNEDPYTFGQGTKVEIKR
notes: Humanized from mouse T84.66; also called Fab^2; Fab^2 fragment having no labeling portion
